{"source": "paper PMC10213764", "about": "(Acta Pharmaceutica Sinica. B, 2023)", "origin": "cited, not measured here", "settings": "continuous agitation, 37 °C", "data": [{"substance": "native insulin: Native insulin was purchased from Life Technologies", "values": [{"measurement": "time free from aggregation, formulated with CB[7]‒PEG conjugate", "result": "> 100", "unit": "days"}]}]}
